# Source: US20060241051A1 (Takeda / Millennium, published 2006)
# Numbered stars: 1 amine (or outer) side, 2 acyl side, 3 side chain; on linkers, the order of the positions; unused ones are H or OH. Square brackets hold non-standard residues; d marks the D form. Ends that are not written are not given here. * marks the point of attachment. Ala(2-Qui) = 2-quinolylalanine, O=C([C@H](Cc1ccc2ccccc2n1)N[*:1])[*:2]; Tyr(Me) = O-methyltyrosine, COc1ccc(C[C@H](N[*:1])C(=O)[*:2])cc1; Propanoyl(3-indol-3-yl) = O=C(CCc1c[nH]c2ccccc12)*; Phe(F5) = N[C@@H](Cc1c(F)c(F)c(F)c(F)c1F)C(=O)O; Propanoyl(3-(3-pyridyl)) = O=C(CCc1cccnc1)*; Arg(Me) = CNC(=N)NCCC[C@H](N)C(=O)O; Fmoc = O=C(OCC1c2ccccc2-c2ccccc21)*; d4Pal = N[C@H](Cc1ccncc1)C(=O)O; Cha = N[C@@H](CC1CCCCC1)C(=O)O; azaGly = NNC(=O)O
# B1: Compound No. 54: des(1-2)-Fmoc-MS10 (peptide)
# peptide: Fmoc-WNSFGLRF-NH2
# SMILES: CC(C)C[C@H](NC(=O)CNC(=O)[C@H](Cc1ccccc1)NC(=O)[C@H](CO)NC(=O)[C@H](CC(N)=O)NC(=O)[C@H](Cc1c[nH]c2ccccc12)NC(=O)OCC1c2ccccc2-c2ccccc21)C(=O)N[C@@H](CCCNC(=N)N)C(=O)N[C@@H](Cc1ccccc1)C(N)=O
# B2: Compound No. 114: des(1-3)-3-(3-Indolyl)propionyl-MS10 (peptide)
# peptide: {Propanoyl(3-indol-3-yl)}-NSFGLRF-NH2
# SMILES: CC(C)C[C@H](NC(=O)CNC(=O)[C@H](Cc1ccccc1)NC(=O)[C@H](CO)NC(=O)[C@H](CC(N)=O)NC(=O)CCc1c[nH]c2ccccc12)C(=O)N[C@@H](CCCNC(=N)N)C(=O)N[C@@H](Cc1ccccc1)C(N)=O
# B3: Compound No. 1: Metastin (peptide)
# peptide: GTSLSPPPESSGSRQQPGLSAPHSRQIPAPQGAVLVQREKDLPNYNWNSFGLRF
# B4: Compound No. 386: des(1-3)-3-Pyridylpropionyl-[AzaGly7,Arg(Me)9,Trp10]MS10 (peptide)
# peptide: {Propanoyl(3-(3-pyridyl))}-NSF[azaGly]L[Arg(Me)]W-NH2
# SMILES: CNC(=N)NCCC[C@H](NC(=O)[C@H](CC(C)C)NC(=O)NNC(=O)[C@H](Cc1ccccc1)NC(=O)[C@H](CO)NC(=O)[C@H](CC(N)=O)NC(=O)CCc1cccnc1)C(=O)N[C@@H](Cc1c[nH]c2ccccc12)C(N)=O
# B5: Compound No. 385: des(1)-[D-Tyr2,D-Pya(4) 3,AzaGly7,Arg(Me)9,Trp10]MS10 (peptide)
# peptide: [dY][d4Pal]NSF[azaGly]L[Arg(Me)]W-NH2
# modifications: N-terminus assumed
# SMILES: CNC(=N)NCCC[C@H](NC(=O)[C@H](CC(C)C)NC(=O)NNC(=O)[C@H](Cc1ccccc1)NC(=O)[C@H](CO)NC(=O)[C@H](CC(N)=O)NC(=O)[C@@H](Cc1ccncc1)NC(=O)[C@H](N)Cc1ccc(O)cc1)C(=O)N[C@@H](Cc1c[nH]c2ccccc12)C(N)=O
# B6: Compound No. 274: des(1-2)-Acetyl-[Ala3,AzaGly7,Arg(Me)9]MS10 (peptide)
# peptide: Ac-ANSF[azaGly]L[Arg(Me)]F-NH2
# SMILES: CNC(=N)NCCC[C@H](NC(=O)[C@H](CC(C)C)NC(=O)NNC(=O)[C@H](Cc1ccccc1)NC(=O)[C@H](CO)NC(=O)[C@H](CC(N)=O)NC(=O)[C@H](C)NC(C)=O)C(=O)N[C@@H](Cc1ccccc1)C(N)=O
# B7: Compound No. 315: des(1)-[D-Asn2,Cha3,AzaGly7,Arg(Me)9]MS10 (peptide)
# peptide: [dN][Cha]NSF[azaGly]L[Arg(Me)]F-NH2
# modifications: N-terminus assumed
# SMILES: CNC(=N)NCCC[C@H](NC(=O)[C@H](CC(C)C)NC(=O)NNC(=O)[C@H](Cc1ccccc1)NC(=O)[C@H](CO)NC(=O)[C@H](CC(N)=O)NC(=O)[C@H](CC1CCCCC1)NC(=O)[C@H](N)CC(N)=O)C(=O)N[C@@H](Cc1ccccc1)C(N)=O
# B8: Compound No. 375: 2-Aminoethyl-Gly-[D-Tyr1,Arg(Me)9]MS10 (peptide)
# peptide: {2‑aminoethyl}-G[dY]NWNSFGL[Arg(Me)]F-NH2
# modifications: not fully specified (residue 1); printed as 2-Aminoethyl-Gly-[D-Tyr1,Arg(Me)9]MS10
# B9: Compound No. 397: Methylthiocarbamoyl-Sar-[D-Tyr1,Arg(Me)9]MS10 (peptide)
# peptide: GYNWNSFGLRF
# modifications: N-terminal Methylthiocarbamoyl-Sar added before position 1; D-Tyr1; Arg(Me)9 (MS10 numbering); C-terminal amide
# B10: Compound No. 387: Dap-[D-Tyr1,Arg(Me)9]MS10 (peptide)
# peptide: XYNWNSFGLRF
# modifications: N-terminal Dap added before position 1; D-Tyr1; Arg(Me)9 (MS10 numbering); C-terminal amide
# B11: Compound No. 203: [D-Tyr1,Cha6,Arg(Me)9]MS10 (peptide)
# peptide: YNWNSXGLRF
# modifications: D-Tyr1; Cha6; Arg(Me)9; C-terminal amide
# notes: printed structure is the same as that of Compound No. 172
# B12: Compound No. 224: des(1)-[D-Tyr2,D-Trp3,Arg(Me)9]MS10 (peptide)
# peptide: [dY][dW]NSFGL[Arg(Me)]F-NH2
# modifications: N-terminus assumed
# SMILES: CNC(=N)NCCC[C@H](NC(=O)[C@H](CC(C)C)NC(=O)CNC(=O)[C@H](Cc1ccccc1)NC(=O)[C@H](CO)NC(=O)[C@H](CC(N)=O)NC(=O)[C@@H](Cc1c[nH]c2ccccc12)NC(=O)[C@H](N)Cc1ccc(O)cc1)C(=O)N[C@@H](Cc1ccccc1)C(N)=O
# B13: Compound No. 201: [Ala(2-Qui)10]MS10 (peptide)
# peptide: YNWNSFGLR[Ala(2-Qui)]-NH2
# modifications: N-terminus assumed
# SMILES: CC(C)C[C@H](NC(=O)CNC(=O)[C@H](Cc1ccccc1)NC(=O)[C@H](CO)NC(=O)[C@H](CC(N)=O)NC(=O)[C@H](Cc1c[nH]c2ccccc12)NC(=O)[C@H](CC(N)=O)NC(=O)[C@@H](N)Cc1ccc(O)cc1)C(=O)N[C@@H](CCCNC(=N)N)C(=O)N[C@@H](Cc1ccc2ccccc2n1)C(N)=O
# Molecular target: T1, human OT7T175 (metastin receptor) (human, UniProt Q969F8 1-398)
# Experiment: cell-based or functional assay
# T1 sequence (Q969F8 whole entry L364H): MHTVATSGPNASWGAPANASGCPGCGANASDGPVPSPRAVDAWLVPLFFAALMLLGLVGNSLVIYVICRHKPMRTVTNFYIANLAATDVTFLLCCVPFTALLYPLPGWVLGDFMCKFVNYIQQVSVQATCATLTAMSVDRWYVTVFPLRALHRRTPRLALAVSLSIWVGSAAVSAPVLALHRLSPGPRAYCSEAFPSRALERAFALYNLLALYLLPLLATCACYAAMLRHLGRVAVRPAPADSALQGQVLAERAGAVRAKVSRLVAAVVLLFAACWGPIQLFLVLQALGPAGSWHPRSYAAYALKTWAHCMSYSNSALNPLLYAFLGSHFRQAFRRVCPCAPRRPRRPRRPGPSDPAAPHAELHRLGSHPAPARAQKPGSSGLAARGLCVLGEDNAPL
row,Binder,intracellular Ca ion level-increasing activity (FLIPR)
1,Fmoc-NSFGLRF-NH2 [Compound No. 53: des(1-3)-Fmoc-MS10],1 specific activity to metastin (1-54)
2,YNWNSFGLR[Tyr(Me)]-NH2 [Compound No. 18: [Tyr(Me)10]MS10],1 specific activity to metastin (1-54)
3,YNWNLFGLRF-NH2 [Compound No. 24: [Leu5]MS10],1 specific activity to metastin (1-54)
4,DNWNSFGLRF-NH2 [Compound No. 75: [Asp1]MS10],1 specific activity to metastin (1-54)
5,YNWNSFSLRF-NH2 [Compound No. 101: [Ser7]MS10],10 specific activity to metastin (1-54)
6,YNWNSFGLRY-NH2 [Compound No. 109: [Tyr10]MS10],20 specific activity to metastin (1-54)
7,YNWNSFALRF-NH2 [Compound No. 50: [Ala7]MS10],30 specific activity to metastin (1-54)
8,YNWNSFGLR[Phe(F5)]-NH2 [Compound No. 111: [Phe(F5)10]MS10],3 specific activity to metastin (1-54)
9,YNWNSFGXRF (Nle8; C-terminal amide) [Compound No. 105: [Nle8]MS10],1 specific activity to metastin (1-54)
10,B1,5 specific activity to metastin (1-54)
11,LPNYNWNSFGLRF-NH2 [Compound No. 32: Leu-Pro-Asn-MS10],10 specific activity to metastin (1-54)
12,YNWNSFGLRX (Cha10; C-terminal amide) [Compound No. 112: [Cha10]MS10],2 specific activity to metastin (1-54)
13,[dY]NWNSFGLRF-NH2 [Compound No. 42: [D-Tyr1]MS10],30 specific activity to metastin (1-54)
14,YN[dW]NSFGLRF-NH2 [Compound No. 40: [D-Trp3]MS10],30 specific activity to metastin (1-54)
15,B2,3 specific activity to metastin (1-54)
16,YNWNSFGLXF (Har9; C-terminal amide) [Compound No. 97: [Har9]MS10],10 specific activity to metastin (1-54)
17,YNWNSFGLRX (Nal(2)10; C-terminal amide) [Compound No. 110: [Nal(2)10]MS10],20 specific activity to metastin (1-54)
18,Fmoc-NWNSFGLRF-NH2 [Compound No. 55: des(1)-Fmoc-MS10],5 specific activity to metastin (1-54)
19,B3,1 specific activity to metastin (1-54)
20,YNWNSFGLRX (Pya(4)10; C-terminal amide) [Compound No. 17: [Pya(4)10]MS10],5 specific activity to metastin (1-54)

# Molecular target: human OT7T175 (metastin receptor) (human) (UniProt Q969F8)
# Experiment: cell-based or functional assay
# human OT7T175 (metastin receptor) (human), sequence (Q969F8 whole entry L364H): as above
row,Binder,intracellular Ca ion level-increasing activity (FLIPR) (specific activity to metastin (1-54))
1,KNWNSFGLRF-NH2 [Compound No. 76: [Lys1]MS10],1
2,B4,7
3,B5,10
4,YNWNSFGLRX (Hph10; C-terminal amide) [Compound No. 79: [Hph10]MS10],1
5,B6,1
6,B7,1
7,B8,2
8,SNWNSFGLRF-NH2 [Compound No. 74: [Ser1]MS10],1
9,YNWNSFGARF-NH2 [Compound No. 45: [Ala8]MS10],1
10,B9,5
11,B10,1
12,YKWNSFGLRF-NH2 [Compound No. 56: [Lys2]MS10],1

# Molecular target: T1, human OT7T175 (metastin receptor)
# Experiment: FMAT competition with Cy-5-labeled metastin (40-54), hOT7T175-expressed CHO cells
row,Binder,IC50 [nM]
1,"[dY]NWNSF[azaGly]LR(Me)F-NH2 [Compound No. 232: [D-Tyr1,AzaGly7,Arg(Me)9]MS10]",49
2,YNWNSFGLR[Tyr(Me)]-NH2 [Compound No. 18: [Tyr(Me)10]MS10],7.7
3,YNWNLFGLRF-NH2 [Compound No. 24: [Leu5]MS10],0.83
4,DNWNSFGLRF-NH2 [Compound No. 75: [Asp1]MS10],880
5,YNWNSFSLRF-NH2 [Compound No. 101: [Ser7]MS10],100
6,YNWNSFGLRY-NH2 [Compound No. 109: [Tyr10]MS10],23
7,YNWNSFALRF-NH2 [Compound No. 50: [Ala7]MS10],190
8,B11,37
9,YNWNSFGLR[Phe(F5)]-NH2 [Compound No. 111: [Phe(F5)10]MS10],140
10,YNWNSFGXRF (Nle8; C-terminal amide) [Compound No. 105: [Nle8]MS10],880
11,B1,450
12,LPNYNWNSFGLRF-NH2 [Compound No. 32: Leu-Pro-Asn-MS10],25
13,"[dY][dN]WNSF[azaGly]LR(Me)F-NH2 [Compound No. 237: [D-Tyr1,D-Asn2,AZaGly7,Arg(Me)9]MS10]",27
14,"[dY]WNSF[azaGly]L[Arg(Me)]F-NH2 [Compound No. 222: des(1)-[D-Tyr2,AzaGly7,Arg(Me)9]MS10]",33
15,YNWNSFGLRX (Cha10; C-terminal amide) [Compound No. 112: [Cha10]MS10],370
16,B12,140
17,B2,550
18,YNWNSFGLXF (Har9; C-terminal amide) [Compound No. 97: [Har9]MS10],370
19,YNWNSFGLRX (Nal(2)10; C-terminal amide) [Compound No. 110: [Nal(2)10]MS10],24
20,B13,820
21,YNWNSFGLRX (Pya(4)10; C-terminal amide) [Compound No. 17: [Pya(4)10]MS10],0.0066

# Molecular target: T1, human OT7T175 (metastin receptor)
# Experiment: cell-based or functional assay
# Remark: another data set of the same source
row,Binder,intracellular Ca ion level-increasing activity (FLIPR)
1,"[dY]NWNSF[azaGly]LR(Me)F-NH2 [Compound No. 232: [D-Tyr1,AzaGly7,Arg(Me)9]MS10]",3 specific activity to metastin (1-54)
2,B11,10 specific activity to metastin (1-54)
3,"[dY][dN]WNSF[azaGly]LR(Me)F-NH2 [Compound No. 237: [D-Tyr1,D-Asn2,AZaGly7,Arg(Me)9]MS10]",3 specific activity to metastin (1-54)
4,"[dY]WNSF[azaGly]L[Arg(Me)]F-NH2 [Compound No. 222: des(1)-[D-Tyr2,AzaGly7,Arg(Me)9]MS10]",5 specific activity to metastin (1-54)
5,B12,2 specific activity to metastin (1-54)
6,B13,1 specific activity to metastin (1-54)
